In assay [1] the target is ACE2(HH:NN)-Fc LALA-PG (human) (UniProt Q9BYF1). In words: SPR. Background: SPR reads the build-up and loss of mass on a sensor chip optically.
In assay [2] the target is ACE2(HH:NN)-Fc (human) (UniProt Q9BYF1). In words: SPR.

The values that follow come from publication doi:10.1101/2021.03.17.435802.

“SARS-CoV-2 S1 B.1.1.7 (from UniProt P0DTC2 14-680) (domain or fragment)”: the fold enhanced affinity (against S1 WT) in assay [1] and in assay [2] was 3 fold in each case.
